# Data from paper doi:10.1101/2020.02.27.968578.
# Experiments:
# [1] = target: CFP (UniProt P42212); test: cited; conditions: PBS, 5 mM MgCl2, pH 7.4, room temperature, 5 min; 50 nM GFP, excitation 480 nm; cited from earlier work
# [2] = target: EGFP (UniProt P42212); test: cited; conditions: PBS, 5 mM MgCl2, pH 7.4, room temperature, 5 min; 50 nM GFP, excitation 480 nm; cited from earlier work
# [3] = target: YFP (UniProt P42212); test: cited; conditions: PBS, 5 mM MgCl2, pH 7.4, room temperature, 5 min; 50 nM GFP, excitation 480 nm; cited from earlier work
# [4] = target: EGFP (UniProt P42212); test: GFP fluorescence quenching titration; conditions: PBS, 5 mM MgCl2, pH 7.4, room temperature, 5 min; 50 nM GFP, excitation 480 nm
sequence,measurement,setting,value
GGGAGCUUCUGGACUGCGAUGGGAGCACGAAACGUCGUGGCGCAAUUGGGUGGGGAAAGUCCUUAAAAGAGGGCCACCACAGAAGC [AP3 (GFP aptamer)],Kd,[1],10 nM
same,Kd,[2],4 nM
same,Kd,[3],10 nM
same,Kd,[4],4 nM
